Assay results published in paper PMC3169740.
pKd: −log10 of the molar value.

Target: fluorescein-labeled SC pseudorepeat-repeat-1 peptide PR-R1[5F] (S. aureus)
Test: other fluorescence titration

fibrinogen fragment D (domain or fragment)
pKd: 7.44 | stoichiometry N (mol of fragment D/mol of peptide): 0.77
